Substitutions are numbered along the chain they refer to. Numbers in names are those of the source.
T1: TNFR1 (Homo sapiens, UniProt P19438)
T1 chain: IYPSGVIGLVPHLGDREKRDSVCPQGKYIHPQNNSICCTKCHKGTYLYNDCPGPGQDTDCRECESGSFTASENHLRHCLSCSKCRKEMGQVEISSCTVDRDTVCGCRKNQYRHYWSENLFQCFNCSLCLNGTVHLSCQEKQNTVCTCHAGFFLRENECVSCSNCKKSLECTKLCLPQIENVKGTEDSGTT

B1: E82M (designed binder)
chain: SMEEEVEKAAKEYEKKKKEAIEKHLEKLKAKDKEAAERFLKELEEAAKEYAKDEAKTMSEEEAKRRAKKYKEKVLLSELSEMEQKEIKEAEEKLVRTILKYVEEAAK
B2: E104C (designed binder)
chain: B1 chain with M82E, E104C
B3: K17S (designed binder)
chain: B1 chain with K17S, M82E
B4: K33V (designed binder)
chain: B1 chain with K33V, M82E
B5: Y50G (designed binder)
chain: B1 chain with Y50G, M82E
B6: A51Q (designed binder)
chain: B1 chain with A51Q, M82E
B7: A67R (designed binder)
chain: B1 chain with A67R, M82E
B8: T57K (designed binder)
chain: B1 chain with T57K, M82E
B9: I87R (designed binder)
chain: B1 chain with M82E, I87R
B10: Y13T (designed binder)
chain: B1 chain with Y13T, M82E
B11: R66V (designed binder)
chain: B1 chain with R66V, M82E
B12: F39A (designed binder)
chain: B1 chain with F39A, M82E
B13: E60W (designed binder)
chain: B1 chain with E60W, M82E
B14: A105H (designed binder)
chain: B1 chain with M82E, A105H
B15: K29D (designed binder)
chain: B1 chain with K29D, M82E
B16: V6N (designed binder)
chain: B1 chain with V6N, M82E
B17: A20H (designed binder)
chain: B1 chain with A20H, M82E
B18: K18C (designed binder)
chain: B1 chain with K18C, M82E
B19: A36P (designed binder)
chain: B1 chain with A36P, M82E
B20: V102C (designed binder)
chain: B1 chain with M82E, V102C
B21: E4P (designed binder)
chain: B1 chain with E4P, M82E
B22: R66P (designed binder)
chain: B1 chain with R66P, M82E
B23: A35S (designed binder)
chain: B1 chain with A35S, M82E
B24: E4I (designed binder)
chain: B1 chain with E4I, M82E
B25: A47K (designed binder)
chain: B1 chain with A47K, M82E
B26: E45H (designed binder)
chain: B1 chain with E45H, M82E
B27: V95S (designed binder)
chain: B1 chain with M82E, V95S
B28: I98S (designed binder)
chain: B1 chain with M82E, I98S
B29: E89L (designed binder)
chain: B1 chain with M82E, E89L
B30: E72V (designed binder)
chain: B1 chain with E72V, M82E
B31: A105K (designed binder)
chain: B1 chain with M82E, A105K
B32: E12Y (designed binder)
chain: B1 chain with E12Y, M82E
B33: E4A (designed binder)
chain: B1 chain with E4A, M82E
B34: E54W (designed binder)
chain: B1 chain with E54W, M82E
B35: L99E (designed binder)
chain: B1 chain with M82E, L99E
B36: V74F (designed binder)
chain: B1 chain with V74F, M82E
B37: V95T (designed binder)
chain: B1 chain with M82E, V95T
B38: E82L (designed binder)
chain: B1 chain with M82L
B39: E4R (designed binder)
chain: B1 chain with E4R, M82E
B40: E5Q (designed binder)
chain: B1 chain with E5Q, M82E
B41: K85I (designed binder)
chain: B1 chain with M82E, K85I
B42: S1I (designed binder)
chain: B1 chain with S1I, M82E
B43: E72K (designed binder)
chain: B1 chain with E72K, M82E
B44: S77D (designed binder)
chain: B1 chain with S77D, M82E
B45: E83L (designed binder)
chain: B1 chain with M82E, E83L
B46: V95F (designed binder)
chain: B1 chain with M82E, V95F
B47: A55E (designed binder)
chain: B1 chain with A55E, M82E
B48: I98Y (designed binder)
chain: B1 chain with M82E, I98Y
B49: L28N (designed binder)
chain: B1 chain with L28N, M82E
B50: Y101T (designed binder)
chain: B1 chain with M82E, Y101T
B51: E14M (designed binder)
chain: B1 chain with E14M, M82E
B52: S1H (designed binder)
chain: B1 chain with S1H, M82E
B53: E42F (designed binder)
chain: B1 chain with E42F, M82E
B54: L79A (designed binder)
chain: B1 chain with L79A, M82E
B55: E86W (designed binder)
chain: B1 chain with M82E, E86W
B56: K29T (designed binder)
chain: B1 chain with K29T, M82E
B57: A9I (designed binder)
chain: B1 chain with A9I, M82E
B58: E26P (designed binder)
chain: B1 chain with E26P, M82E
B59: K73C (designed binder)
chain: B1 chain with K73C, M82E

Target: T1, TNFR1
Experiment: yeast display SC50

| apparent Kd (screen) [nM] | Binder |
| --- | --- |
| 0.79 | B1 |
| 1.27 | B2 |
| 1.27 | B3 |
| 0.446 | B4 |
| 10.4 | B5 |
| 0.446 | B6 |
| 7.07 | B7 |
| 0.446 | B8 |
| 16.7 | B9 |
| 1.69 | B10 |
| 18.3 | B11 |
| 3 | B12 |
| 0.446 | B13 |
| 2.05 | B14 |
| 0.49 | B15 |
| 2.73 | B16 |
| 0.446 | B17 |
| 0.869 | B18 |
| 0.446 | B19 |
| 1.4 | B20 |

| apparent Kd (screen) [nM] | Binder |
| --- | --- |
| 3.3 | B21 |
| 0.593 | B22 |
| 0.79 | B23 |
| 1.86 | B24 |
| 0.49 | B25 |
| 3.3 | B26 |
| 13.8 | B27 |
| 11.4 | B28 |
| 1.86 | B29 |
| 1.27 | B30 |
| 1.86 | B31 |
| 0.593 | B32 |
| 0.539 | B33 |
| 0.869 | B34 |
| 12.5 | B35 |
| 9.41 | B36 |
| 13.8 | B37 |
| 0.718 | B38 |
| 1.69 | B39 |
| 0.446 | B40 |

| apparent Kd (screen) [nM] | Binder |
| --- | --- |
| 0.539 | B41 |
| 0.79 | B42 |
| 9.41 | B43 |
| 11.4 | B44 |
| 1.27 | B45 |
| 13.8 | B46 |
| 1.27 | B47 |
| 5.84 | B48 |
| 1.16 | B49 |
| 0.49 | B50 |
| 12.5 | B51 |
| 1.4 | B52 |
| 12.5 | B53 |
| 2.73 | B54 |
| 1.54 | B55 |
| 0.593 | B56 |
| 0.446 | B57 |
| 22.2 | B58 |
| 24.4 | B59 |
